These results are taken from the DeepSol protein solubility set.

This data set can be described thus: soluble on expression in E. coli; label from the status in PepcDB or PDB records.
For the sequence “MAKEKEKLFSEFPPVSREAWIDKITADLKGVPFEKKLVWRTNEGFNVNPFYRREDIEDLKTTTSLPDEYPYVRSTRMHNEWLVRQDIVVGDNVAEANEKALDLLNKGVDSLGFYLKKVHINVDTLAALLKDIELTAVELNFNCCITRAADLLSAFSAYVKKVGADPNKCHGSVSYDPFKKQLVRGVSNPDWVKMTLPVMDAARELPAFRVLNVNAVNLSDAGAFITQELGYALAWGAELLDKLTDAGYKPEEIASRIKFNFGIGSNYFMEIAKFRAARWLWAQIVGSYGDQYKNETAKIHQHATTSMWNKTVFDAHVNLLRTQTETMSAAIAGVDSITVLPFDVTYQQSDDFSERIARNQQLLLKEECHFDKVIDPSAGSYYIETLTNSIGEEAWKLFLSVEDAGGFTQAAETASIQKAVNASNIKRHQSVATRREIFLGTNQFPNFTEVAGDKITLAQGEHDCNCVKSIEPLNFSRGASEFEALRLATEKSGKTPVVFMLTIGNLAMRLARSQFSSNFFGCAGYKLIDNLGFKSVEEGVDAALAAKADIVVLCSSDDEYAEYAPAAFDYLAGRAEFVVAGAPACMADLEAKGIRNYVHVKSNVLETLRAFNDKFGIR”, the “soluble on expression in E. coli” value is recorded as “not soluble”.

As for “MRYAEVLIPLALEGSFHYRLAEGLAEKAIVGMRCVVPFGAKRYYTGIIIGLSDKRPNLQISFKEVLFLPDDKPSVTASQLSLWQWLSAYYICTQGEVLRAALPAALLPESHTVIHYNTDFEADSRLSRDEEELLDILESAKGRTYTLDALQKAVGKRAIRAFTSLVERGAIRLEEEVKSRYKPKSEVFVRLAEPFRTEKTFASLLDSLHRAPKQSALLLHWAELITEHSLPYSSPMPQRLLAESDPHATVTLSALKKKGIFLSESVTHSVMYSAGGGEYRLWEQPQEEEKAIQSEESSTDSAVSASLPQKPLSLLYTHDFRRKEKQLLEWTEEVVRSGGQVLYLSPEANKRGGSDTLSTRMAERLGSCLLSYHAFESDAKRVEVWNRLATTEYPCVVLGVRSALFLPFRRLRLIIVDEEQEYLYKQQDPAPRFHTRQVAARLGRIHDCPVVLASATPSAEVLHQVRHKACELITWPDDRVRPRFDLEVIDMGKMRRQRQVGAGELLSFPLVSAIEETIRQKKMAVVLQNRRGFAPYIICSSCGEKLRCIHCDVSLTYHKHSCMLVCHYCGYSRPLPRICPSCKRASGVGEPSSLQPVGYGAERIEEELKRRFPTVSILRMDSDMAMSRTKMDEALARLEAKEVDILVGTQLIKGQVYNEHVGLVAVTQLDSILGFPDFRAYERAYQLLYQLMLRSGASRLYIQTNNPANSFPDLLREGDYKAFIGKQLEERQMLFFPPFSRLIRIEFRAGEESLVERIASDYAASLAAHLPEQSLSPVLVPPISRLRNAFIRELLLRLPLSSSVSATRNILDTIRTTLQTRTQEYKRVRILFDVDPL”, the “soluble on expression in E. coli” value is on record as “not soluble”.

Take “MGSDKIHHHHHHMFAERLERARKAAGLSMNALANEVGLSANAIKKYEHGTAMPSSSNLLKLAKALDVRTEYFFRPTKVKLEGVEYRKRASTPKKVLDRINGDVLEQAERWQELLELYPDSVKPIPEFTLPNELPEQITSIEQVEDLAIQMRHAWDLGLNPIHDMIDTLEAKGVMIITTDVETDKKFDGLAGKIGSTPVVVISTAQSGDRQRFTLAHELGHLVVHGRLVEALDEEKACNTFAGAFLLPTQTLIEHLGEKRRHIEPRELLMLKHEYGISMLAALFRAGQCGIITPATQKNLFMLFSKNGWRTEEPGKAYPHESTYLHKQLVYRALGEEYIGESKAAELLGMSVSSFHKERKLEVPIQSQLALEAKGAAASN”: the “soluble on expression in E. coli” value is on record as “not soluble”.

Regarding “MEARTTDLSDLYPEGEALPMVFKSFGGRARFAGRVRTLRVFEDNALVRKVLEEEGAGQVLFVDGGGSLRTALLGGNLARRAWEKGWAGVVVHGAVRDTEELREVPIGLLALAATPKKSAKEGKGEVDVPLKVLGVEVLPGSFLLADEDGLLLLPEPPSGVRSGG”, the “soluble on expression in E. coli” value was “soluble”.

For “MGSDKIHHHHHHMDFMTALDIGASALSAERTSMNITSMNLANAKTTRTIGGGPYRRKAVVMAATEVDDPFSKHMQSALDRELRGVRVQHIVRDNRPFRQVYEPGHPDADANGYVKYPDINVVEEMANLMTSQRGYQASVSTIEAVKSMYTKALEIGRS”, the “soluble on expression in E. coli” value is given as “not soluble”.

As to “MRKMMPMNPKQLKKLMKQLDMRQLEGVKEVIIKMEDREIIIKEPIVTVIKAMGEKMYQIAGGSEEEKAIINISEEDIKLVMEQAGVDYETAKKALEETGGDLAEAILRLTDSGVE”, the “soluble on expression in E. coli” value was “soluble”.

Consider “ALIDVVVVCDESNSIYPWDAVKNFLEKFVQGLDIGPTKTQVGLIQYANNPRVVFNLNTYKTKEEMIVATSQTSQYGGDLTNTFGAIQYARKYAYSAASGGRRSATKVMVVVTDGESHDGSMLKAVIDQCNHDNILRFGIAVLGYLNRNALDTKNLIKEIKAIASIPTERYFFNVSDEAALLEKAG”, for which the “soluble on expression in E. coli” value is “soluble”.

“MLNEFDQYLHERYLSGKARKDRWYWNNSIQRGRSTAVRENWQWKPAVAYCRYADDFVLIVKGTKAQAEAIREECRGVLEGSLKLRLNMDKTKITHVNDGFIFLGHRIIRKRSRYGEMRVVSTIPQEKARNFAASLTALLSGNYSESKVDMAEQLNRKLKGWAMFYQFVDFKAKVFSYIDRVVFWKLAHWLARKYRTGIASLMRWWCKSPKPGQSKTWVLFGKTNHGKLSGEILYRLVGQGKKLFRWRLPEGNPYLRTETRNTYTSRFTEVAMAFASILEHHHHHH”: the “soluble on expression in E. coli” value was “soluble”.

As to “MEASKEFPGFPNDFHAFEVSPIPFDINSKELSLKNHSNRAILFKVKCTNNKRIRIEECSDILKPGNETTATIKKLVDTVDGDSLYVIYTLVGKEWHNERMSAWRCWERAKKQAVPTQCISVPIKRSSECEKKEKKYEKEKTKSED”, the “soluble on expression in E. coli” value was “soluble”.

As to “MDFKQHIAIVPDYPKEGIVFKDITPLMNDGKAYKAATDAIVEYAKERDIDLVVGPEARGFIIGCPVSYALEVGFAPVRKLGKLPREVITVDYGKEYGKDVLTIHKDAIKPGQRVLITDDLLATGGTIEATIKLVEELGGVVAGIAFLVELTYLDGRKMLDGYDVLVLEKY”, the “soluble on expression in E. coli” value was “not soluble”.

As to “MGSDKIHHHHHHDDNEIEIPKAPVLEKAQLALAIKSEEGAVTKTGETTPTDADVNTLTVGVFGVDGWSVIYTKDATPNSDGTKDVGPQEVYAGEAHVVVVANAAPVIQTELAKAKDITDFIETTINLSDETLTKGLTMSSKVLDVTLVANTTNYIGYDDEVGDITVKDISGKEVYGAGPVPLVRDVASIALAGADIGNPENANYESKSFVLKEVFIASAKGVSSVASTEEWGTIEKDFFGDTHFGYLDYKVGLLFLTSPNNIDEGSYKKGLQTKYDALAKKHVENDPALNHEFYVYENTKGEVKSGESNVNEAYANHTLLIVKGDYTYLPQGAKESITKENCYYAIPVGEEVTIDGTEKRSKFYVQRNYKYEISLTIIGPGSEIPYDPMISTNVSASVKVEPWNVKTIHEEVE”, the “soluble on expression in E. coli” value was “not soluble”.

As for “MGSDKIHHHHHHMDHQYTTLERNRYFEVLGGLNVENRGDNKVAMLSELDMTSAQALRTSVDRQTGIKPSYTAIVAKAVSIALREHPYANRMAVERLFWKRILQLHDVHMTIAVERDRPGIEQAVFAGTIRDTDKLDVAAITKELQSLAQSTEETNERWRLLKRMVETLPPALARRLISIPRWLPDQWIKHRGGSVMISSPAKYGVDMMVANWPWPIGYSFGLVKDRVIAVEGAAQVRPTMVLTMSFDRRLMGGAPAARFFRTVCEHIEHAERDMALPVNIPS”, the “soluble on expression in E. coli” value is “not soluble”.

Take “MAHHHHHHMWYSNLFVAKLPRHLCDGDLLQIFSNFNPLGAKIMLDPSTGNSKGFGFVLFDKEEEGRTAYERLNRKLVRVCNSSFNLLIYPSQHNGKAVTLPSRAVYIRNIPTTMGEREVQNFLSNLAPLEYCAMRGDHHGNPVWVVYAEFDTPQNAQRVLDKLHGNSNHFGGPPIMVKYADTDEAKRERRRRREEGRLAPGPALKGACLFPPPRPGVVSLNQTQVSQSATETSPSCSPAAHHVTKTKMVAPMVEVEPRAQPLYFSTSPVTAMPPLLPVDMSYDGAAATVPLQTADCPAANGVLVLGNGQQVFLTPNAVNLHPTKFNAPPTALLVPAVDTTLVPLPPQRTLVYGPW”: the “soluble on expression in E. coli” value is reported as “not soluble”.

With “MSLTHSCRLSVAPMLDWTDRHCRYFHRLLSAQTLLYTEMVTTGAIIHGRGDFLAYNQEEHPVALQFGGSNPKDLAHCAKLAQERGYDEINLNVGCPSDRVQNGRFGACLMGEPDLVAECVAAMRAVVDIPVTVKTRIGIDDQDSYEFLTQFIATVAEKGGCEQFTIHARKAWLSGLSPKENREIPPLDYPRAYQIKRDFPHLTIAVNGGVKSLEEAKLHLQHLDGVMIGREAYQNPYLLAEVDQQIFGLETPVKKRSQVIHEMMPYIERELSQGTHLGHMTRHMLGLFQNMPGARQWRRHISENAHKPGAGLEVVEQALAKIPYQELGEGHHHHHH”, the “soluble on expression in E. coli” value is reported as “soluble”.

Take “MQSQRAYELIKAEIFKRLGVNRTDAYKDSYLQRRIRARMRKLGISDYMEYYKILKSNKEEFEELLLTIAINVTEFFRDPIVWKTFQNKILPELVQFKKSKGFRSIKIWSAACSTGQEPYSIAMTLYEVLGENLGGFRVSILATDIDKEALQIAMRGEYPVDAVEKQVPRHMIYKYFDRISEERYRIKPHVKRLVTFRWFNLLSSIYPKGFDVIFIRNVLIYMSKEAQEDIFRKLYDSLEDHGYLILGKTETILGRSANLFKLYDLVAKVYKKNLGVKGNG”: the “soluble on expression in E. coli” value is recorded as “soluble”.

Take “MGSDKIHHHHHHMGILQTMFIGFDYGTANCSVAVMRENTPQLLTLENGSTLLPSMLCAPTREAVSEWLYRHHDVPTHSDENQALLRRAIAANRDEDIEVLRNSVQFGLASLQQYVEDPQEVYFVKSPKSFLGASGLKPQQVALFEDLVCAMMLHIKLQAESQLPEQIDQAVIGRPINFQGLGGDEANAQAQGILERAAHRAGFRDVVFQFEPVAAGLDFEATLSEEKRVLVVDIGGGTTDCSLLLMGPQWRERADRQQSLLGHSGCRIGGNDLDIALAFKCLMPLLGMGGETEKGTALPILPWWNAVAINDVPAQSDFYSTANGRLLNDLLRSARDADKVALLLKVWRQRLSYRLVRSAEESKIALSSAASVETALPFIQDDLATAIAQQGLEAALDQPLTRIMEQVRLALDSSQTTPDVIYLTGGSARSPLIKKALAAQLPGIPLAGGDDFGSVTAGLARWAQVVFR”: the “soluble on expression in E. coli” value is given as “not soluble”.

“MKPKTRLYYAERLEPVLAWLAARPDADADLHRLAELACLSPYYFHRVYRALLGETVHATVQRMRLARASVALAQGKGSLRQVADRAGYASEAAFSRAFSAQYGLPPGRYRAKRSSPFNPEELRMYPLTMEDFPGLSLAILAHQGDYQEIGNTFDRLALLAAIQDLVRDGMQPPPRYIGVYYDDPAQVARDALRSRAGVSLPPGTAAPAPFEPLDIPAMRCAVLEYTGPYSEIEAPYNWLFSQWLPASGQEPGDFPMFEEYLNDPKTTPAAQLKTRIYLPLA”: the “soluble on expression in E. coli” value is listed as “not soluble”.

As to “MKEAMNNHKKLGILLANLGTPQAPTSQAVKAFLSQFLHDQRVVDMSRWLWCPLLHGIILPTRSPKVAKLYQSIWMDEGSPLMVYSRRQRDKLAELSQRPVELGMTYGEPSLLEGVRKLQQQGVEQIVVLPLYPQYSATTTAAVFDGLAKALRQLPVVPELHFIRDYHDHPLYIQALAKSVRASWQQHGQGDLLLCSYHGIPKRYAQNGDIYPEHCLKTTELLAQALGLPQDKVMMTYQSQFGKEEWLQPYTDKTMEALPRQGIKKLDVICPAFSVDCLETLEEIAEQNQEIFLHSGGEAFHYVPCLNDSQSHIELMAALVKVDC”, the “soluble on expression in E. coli” value is listed as “not soluble”.
